Common to all, as to assay: EMSA
A general note: In EMSA bound probe runs differently from free probe, usually more slowly.

Series [1] has as its target T1, RB69 DNA polymerase gp43 PolY567A Exo+ (bacteriophage RB69, UniProt Q38087 1-903, Y567A).
T1 sequence: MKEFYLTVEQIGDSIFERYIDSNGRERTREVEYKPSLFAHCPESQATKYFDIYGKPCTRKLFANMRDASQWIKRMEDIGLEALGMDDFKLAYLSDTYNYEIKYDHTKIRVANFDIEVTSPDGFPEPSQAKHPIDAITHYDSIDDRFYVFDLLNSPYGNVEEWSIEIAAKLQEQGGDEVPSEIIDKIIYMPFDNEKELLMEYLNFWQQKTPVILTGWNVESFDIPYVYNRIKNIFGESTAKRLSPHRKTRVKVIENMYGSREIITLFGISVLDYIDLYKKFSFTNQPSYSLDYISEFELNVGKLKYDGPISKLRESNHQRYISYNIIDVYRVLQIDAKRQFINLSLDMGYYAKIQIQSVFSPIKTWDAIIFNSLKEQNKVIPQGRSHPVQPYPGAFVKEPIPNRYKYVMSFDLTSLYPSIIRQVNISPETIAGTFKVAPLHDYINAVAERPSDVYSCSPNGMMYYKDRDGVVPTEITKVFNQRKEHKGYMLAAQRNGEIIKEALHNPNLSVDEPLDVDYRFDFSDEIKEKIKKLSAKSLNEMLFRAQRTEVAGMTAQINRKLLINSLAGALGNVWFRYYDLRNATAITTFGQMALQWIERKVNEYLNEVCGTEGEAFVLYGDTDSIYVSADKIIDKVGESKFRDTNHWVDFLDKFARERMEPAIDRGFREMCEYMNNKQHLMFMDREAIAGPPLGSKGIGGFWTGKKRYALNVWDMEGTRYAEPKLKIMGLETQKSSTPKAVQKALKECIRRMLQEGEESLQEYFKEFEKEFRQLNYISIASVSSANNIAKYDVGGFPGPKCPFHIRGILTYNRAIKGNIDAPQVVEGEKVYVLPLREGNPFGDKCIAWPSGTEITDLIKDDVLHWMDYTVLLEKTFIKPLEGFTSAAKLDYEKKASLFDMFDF

Series [2] has as its target T2, RB69 DNA polymerase gp43 PolS565G Exo+ (bacteriophage RB69, UniProt Q38087 1-903, S565G).
T2 sequence: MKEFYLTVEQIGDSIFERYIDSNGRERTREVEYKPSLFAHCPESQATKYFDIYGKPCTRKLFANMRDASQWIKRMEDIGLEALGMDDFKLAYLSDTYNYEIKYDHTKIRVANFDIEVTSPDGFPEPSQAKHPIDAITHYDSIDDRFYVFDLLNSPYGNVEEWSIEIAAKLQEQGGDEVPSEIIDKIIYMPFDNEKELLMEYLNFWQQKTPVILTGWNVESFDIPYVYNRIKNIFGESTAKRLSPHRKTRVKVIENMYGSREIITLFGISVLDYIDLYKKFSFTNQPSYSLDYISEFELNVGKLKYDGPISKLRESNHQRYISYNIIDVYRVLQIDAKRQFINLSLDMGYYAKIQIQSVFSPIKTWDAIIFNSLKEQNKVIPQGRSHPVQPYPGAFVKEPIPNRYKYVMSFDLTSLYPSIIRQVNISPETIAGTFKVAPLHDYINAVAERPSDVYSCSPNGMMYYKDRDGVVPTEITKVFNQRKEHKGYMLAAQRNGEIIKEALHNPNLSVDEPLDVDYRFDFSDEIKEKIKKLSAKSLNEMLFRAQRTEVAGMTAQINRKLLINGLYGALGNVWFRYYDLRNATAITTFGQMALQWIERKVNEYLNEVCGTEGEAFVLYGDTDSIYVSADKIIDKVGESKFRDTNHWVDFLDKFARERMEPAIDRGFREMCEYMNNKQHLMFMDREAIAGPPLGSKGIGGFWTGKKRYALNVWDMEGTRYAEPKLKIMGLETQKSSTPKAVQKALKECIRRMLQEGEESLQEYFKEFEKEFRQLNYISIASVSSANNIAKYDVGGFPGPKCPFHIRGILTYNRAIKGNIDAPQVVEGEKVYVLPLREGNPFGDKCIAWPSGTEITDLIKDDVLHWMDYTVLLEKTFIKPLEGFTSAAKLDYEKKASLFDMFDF

The target of series [3] is T3, RB69 DNA polymerase gp43 Pol+ Exo+ (wild type) (bacteriophage RB69, UniProt Q38087 1-903).
T3 sequence: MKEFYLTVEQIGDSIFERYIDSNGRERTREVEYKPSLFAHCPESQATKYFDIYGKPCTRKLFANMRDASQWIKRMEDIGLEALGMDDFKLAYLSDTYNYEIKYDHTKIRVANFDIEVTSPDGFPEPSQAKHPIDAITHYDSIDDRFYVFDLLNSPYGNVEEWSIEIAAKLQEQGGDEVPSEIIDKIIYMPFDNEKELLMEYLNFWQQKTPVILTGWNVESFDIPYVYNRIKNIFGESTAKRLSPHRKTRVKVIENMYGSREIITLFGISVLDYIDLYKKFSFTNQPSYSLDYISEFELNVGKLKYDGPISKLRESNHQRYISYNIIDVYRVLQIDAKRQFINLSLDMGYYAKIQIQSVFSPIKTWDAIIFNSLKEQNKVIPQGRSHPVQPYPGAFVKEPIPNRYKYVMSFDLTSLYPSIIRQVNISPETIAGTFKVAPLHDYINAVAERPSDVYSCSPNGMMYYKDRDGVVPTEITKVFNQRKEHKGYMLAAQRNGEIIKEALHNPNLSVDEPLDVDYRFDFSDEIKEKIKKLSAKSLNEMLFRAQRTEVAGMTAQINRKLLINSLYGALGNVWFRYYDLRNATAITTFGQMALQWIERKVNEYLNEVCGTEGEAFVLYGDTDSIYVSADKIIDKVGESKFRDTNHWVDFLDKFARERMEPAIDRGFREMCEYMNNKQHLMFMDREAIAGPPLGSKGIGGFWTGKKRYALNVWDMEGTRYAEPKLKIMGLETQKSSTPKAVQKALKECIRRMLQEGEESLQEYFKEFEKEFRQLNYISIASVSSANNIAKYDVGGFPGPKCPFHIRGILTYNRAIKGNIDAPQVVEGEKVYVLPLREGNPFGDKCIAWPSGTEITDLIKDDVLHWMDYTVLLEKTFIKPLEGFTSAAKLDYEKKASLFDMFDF

Series [4] addresses T4, RB69 DNA polymerase gp43 PolS565G/Y567A Exo+ (bacteriophage RB69, UniProt Q38087 1-903, S565G;Y567A).
T4 sequence: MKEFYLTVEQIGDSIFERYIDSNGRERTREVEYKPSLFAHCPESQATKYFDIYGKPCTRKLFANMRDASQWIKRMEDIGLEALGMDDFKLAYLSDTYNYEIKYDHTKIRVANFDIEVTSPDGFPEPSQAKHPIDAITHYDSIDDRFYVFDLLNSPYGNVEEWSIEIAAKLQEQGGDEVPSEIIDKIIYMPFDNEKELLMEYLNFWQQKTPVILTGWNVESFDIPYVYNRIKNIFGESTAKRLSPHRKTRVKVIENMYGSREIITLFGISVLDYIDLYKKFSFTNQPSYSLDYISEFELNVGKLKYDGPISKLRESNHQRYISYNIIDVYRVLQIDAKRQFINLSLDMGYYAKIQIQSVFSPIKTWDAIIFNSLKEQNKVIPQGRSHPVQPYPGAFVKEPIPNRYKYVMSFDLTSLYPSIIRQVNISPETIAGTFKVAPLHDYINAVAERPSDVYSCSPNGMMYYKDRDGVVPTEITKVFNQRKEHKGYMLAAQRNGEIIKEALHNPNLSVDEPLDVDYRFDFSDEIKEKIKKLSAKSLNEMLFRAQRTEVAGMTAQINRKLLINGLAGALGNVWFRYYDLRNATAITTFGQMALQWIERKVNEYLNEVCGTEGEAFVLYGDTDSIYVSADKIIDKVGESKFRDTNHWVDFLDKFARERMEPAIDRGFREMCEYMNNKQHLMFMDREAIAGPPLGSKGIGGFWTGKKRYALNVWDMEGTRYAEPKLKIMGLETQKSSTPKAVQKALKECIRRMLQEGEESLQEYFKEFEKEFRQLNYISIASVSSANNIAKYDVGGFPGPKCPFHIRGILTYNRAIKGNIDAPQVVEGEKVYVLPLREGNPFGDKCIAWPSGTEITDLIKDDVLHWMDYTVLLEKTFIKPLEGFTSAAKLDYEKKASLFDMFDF

B1: normal dsDNA primer/template 20/35-mer (dsDNA)
DNA 1: TTTGATGTATTATCAATTGT
DNA 2: TGCCTTCGTAATCTTACAATTGATAATACATCAAA
A word on the Kd: it is the free concentration of one partner at which half of the binding sites on the other are occupied at equilibrium, for simple one-to-one binding. Read a low Kd as higher affinity. In the case of B1, the Kd came to 13.2 ± 1.4 nM in series [1], 38.9 ± 3.4 nM in series [2], 6.9 ± 2.1 nM in series [3] and 29.9 ± 1.9 nM in series [4].

B2: mismatched dsDNA primer/template 20/30-mer, terminal T·G (dsDNA)
DNA 1: ATGTGCTGCAAGGCGATTAG
DNA 2: GTTACCCAACTTAATCGCCTTGCAGCACAT
With B2, the Kd in series [1] stood at 25.7 ± 3.2 nM; in series [2], 132 ± 5.7 nM; in series [3], 38.2 ± 4.3 nM; in series [4], 79.9 ± 4.8 nM.

Values taken from article PMC2991499.
